Measured values published in paper PMC10914487, “Interaction of human dendritic cell receptor DEC205/CD205 with keratins” (The Journal of Biological Chemistry, 2024).
Like-named read-outs stand apart in the source and are kept apart here.

B1: K1-T2 (I512-G521: ISGGGSRGGG), SUMO fusion (peptide)
chain: ISGGGSRGGG
notes: keratin 1 (K1), human, tail, residues I512-G521; Expressed and purified for ELISA and flow cytometry; source: E. coli BL21(DE3), pET28a, purified (Ni-NTA)
B2: K10-T10 (residue G481-G490), SUMO fusion (peptide)
chain: GSSGGGHGGG
notes: keratin 10 (K10), human, tail, residues G481-G490; Form used in the Western blot (overlay) assay and, with SUMO as control, in ELISA; source: E. coli BL21(DE3), pET28a, purified (Ni-NTA); not shown: SUMO, N-terminal, kept
B3: CysR∼CTLD3-Fc of DEC205 (Fc fusion)
chain: SGRAANDPFTIVHGNTGKCIKPVYGWIVADDCDETEDKLWKWVSQHRLFHLHSQKCLGLDITKSVNELRMFSCDSSAMLWWKCEHHSLYGAARYRLALKDGHGTAISNASDVWKKGGSEESLCDQPYHEIYTRDGNSYGRPCEFPFLIDGTWHHDCILDEDHSGPWCATTLNYEYDRKWGICLKPENGCEDNWEKNEQFGSCYQFNTQTALSWKEAYVSCQNQGADLLSINSAAELTYLKEKEGIAKIFWIGLNQLYSARGWEWSDHKPLNFLNWDPDRPSAPTIGGSSCARMDAESGLWQSFSCEAQLPYVCRKPLNNTVELTDVWTYSDTRCDAGWLPNNGFCYLLVNESNSWDKAHAKCKAFSSDLISIHSLADVEVVVTKLHNEDIKEEVWIGLKNINIPTLFQWSDGTEVTLTYWDENEPNVPYNKTPNCVSYLGELGQWKVQSCEEKLKYVCKRKGEKLNDASSDKMCPPDEGWKRHGETCYKIYEDEVPFGTNCNLTITSRFEQEYLNDLMKKYDKSLRKYFWTGLRDVDSCGEYNWATVGGRRRAVTFSNWNFLEPASPGGCVAMSTGKSVGKWEVKDCRSFKALSICKKMS
B4: K1-T3 (G532-G541 and G560-G569: GSGGGSYGSG), SUMO fusion (peptide)
chain: GSGGGSYGSG
notes: Expressed and purified for ELISA and flow cytometry; source: E. coli BL21(DE3), pET28a, purified (Ni-NTA)
B5: CysR∼CTLD3 fragment of human DEC205 (residues M1-S627) with a C-terminal 6xHis-tag (domain or fragment, UniProt O60449 28-627, looked up)
chain: B3 chain
notes: signal peptide in the construct; DEC205 (CD205, Ly75), human, CysR∼CTLD3 fragment, residues M1-S627; Construct used for crystallisation; a homodimer stands in the asymmetric unit of the P1 crystal form only; also called N-terminal fragment of DEC205; CD205; source: High-Five insect cells (baculovirus made in Sf9), from culture supernatant, purified (Ni-NTA, gel filtration)
B6: K10-T11 (residue G507-G516), SUMO fusion (peptide)
chain: GSSGGGYGGG
notes: keratin 10 (K10), human, tail, residues G507-G516; source: E. coli BL21(DE3), pET28a, purified (Ni-NTA); not shown: SUMO, N-terminal, kept
B7: Human keratin 10 C-terminal tail fragment K10-T1 (residue G461-Y584) (domain or fragment, UniProt P13645 461-584, looked up)
chain: GGGRGGGSFGGGYGGGSSGGGSSGGGHGGGHGGSSGGGYGGGSSGGGSSGGGYGGGSSSGGHGGSSSGGYGGGSSGGGGGGYGGGSSGGGSSSGGGYGGGSSSGGHKSSSSGSVGESSSKGPRY
notes: keratin 10 (K10), human, C-terminal tail, residues G461-Y584; Expressed without a SUMO tag; source: E. coli BL21(DE3), pET28a, purified (Ni-NTA)
B8: chemically synthesized peptide K10-T10 (peptide)
peptide: GSSGGGHGGG
notes: keratin 10 (K10), human, tail, residues G481-G490; source: synthetic peptide
B9: chemically synthesized peptide K10-T11 (peptide)
peptide: GSSGGGYGGG
notes: keratin 10 (K10), human, tail, residues G507-G516; source: synthetic peptide
B10: K10-T2 (residue G461-G520), SUMO fusion (domain or fragment, human, UniProt P13645 461-520, looked up)
chain: GGGRGGGSFGGGYGGGSSGGGSSGGGHGGGHGGSSGGGYGGGSSGGGSSGGGYGGGSSSG
notes: keratin 10 (K10), human, tail, residues G461-G520; source: E. coli BL21(DE3), pET28a, purified (Ni-NTA); not shown: SUMO, N-terminal, kept
B11: K10-T4 (residue G461-H491), SUMO fusion (peptide, UniProt P13645 461-491, looked up)
chain: GGGRGGGSFGGGYGGGSSGGGSSGGGHGGGH
notes: keratin 10 (K10), human, tail, residues G461-H491; source: E. coli BL21(DE3), pET28a, purified (Ni-NTA); not shown: SUMO, N-terminal, kept
B12: K10-T5 (residue G492-G520), SUMO fusion (peptide, UniProt P13645 492-520, looked up)
chain: GGSSGGGYGGGSSGGGSSGGGYGGGSSSG
notes: keratin 10 (K10), human, tail, residues G492-G520; source: E. coli BL21(DE3), pET28a, purified (Ni-NTA); not shown: SUMO, N-terminal, kept
B13: K10-T6 (residue G461-G476), SUMO fusion (peptide, UniProt P13645 461-476, looked up)
chain: GGGRGGGSFGGGYGGG
notes: keratin 10 (K10), human, tail, residues G461-G476; source: E. coli BL21(DE3), pET28a, purified (Ni-NTA); not shown: SUMO, N-terminal, kept
B14: K10-T7 (residue S477-H491), SUMO fusion (peptide, UniProt P13645 477-491, looked up)
chain: SSGGGSSGGGHGGGH
notes: keratin 10 (K10), human, tail, residues S477-H491; source: E. coli BL21(DE3), pET28a, purified (Ni-NTA); not shown: SUMO, N-terminal, kept
B15: K10-T8 (residue G492-G506), SUMO fusion (peptide, UniProt P13645 492-506, looked up)
chain: GGSSGGGYGGGSSGG
notes: keratin 10 (K10), human, tail, residues G492-G506; source: E. coli BL21(DE3), pET28a, purified (Ni-NTA); not shown: SUMO, N-terminal, kept
B16: K10-T9 (residue G507-G520), SUMO fusion (peptide, UniProt P13645 507-520, looked up)
chain: GSSGGGYGGGSSSG
notes: keratin 10 (K10), human, tail, residues G507-G520; source: E. coli BL21(DE3), pET28a, purified (Ni-NTA); not shown: SUMO, N-terminal, kept

Columns and labels:
CysR∼CTLD3-Fc of DEC205 [1] = molecular target: B3; assay: ELISA; pH 6.0
CysR∼CTLD3-Fc of DEC205 [2] = molecular target: T1, CysR∼CTLD3-Fc of DEC205 (human, UniProt O60449 28-627); assay: ELISA; keratin fragments coated (∼2 μg per well); CysR∼CTLD3-Fc serially diluted in PBS, 2 mg/ml BSA at preset pH (acidic pH), 2 h, 37 °C; detected with HRP anti-human IgG Fcγ antibody; conditions: both partners purified
T1 construct: signal peptide in the construct; DEC205 (CD205, Ly75), human, CysR∼CTLD3 fragment, residues M1-S627; Human Fc homodimeric fragment with 6xHis at its C-termini fused to the C-terminus of CysR∼CTLD3; Used for Western blot (overlay) assays and ELISA; also called CysR∼CTLD3 fragment; CysR-CTLD3 fragment; source: High-Five insect cells (baculovirus made in Sf9), from culture supernatant, purified …
T1 sequence (looked up): B3 chain

[3] = molecular target: T2, CysR∼CTLD3-GFP fragment of DEC205 (wild type) (human, UniProt O60449 28-627); assay: flow cytometry on cells; inhibition assay: ActD-induced Jurkat cells in PBS pH 6.0 incubated with CysR∼CTLD3-GFP with or without keratin fragments (about 20 μg/ml); the pair meant is keratin fragment and CysR∼CTLD3-GFP; conditions: both partners purified
T2 construct: signal peptide in the construct; DEC205 (CD205, Ly75), human, CysR∼CTLD3 fragment, residues M1-S627; Used for flow cytometry; also called CysR-CTLD3 fragment; not shown: GFP, C-terminal, kept
T2 sequence (looked up): B3 chain

CysR∼CTLD3-Fc of DEC205 [4] = molecular target: B3; assay: ELISA; pH 6.0
[5] = molecular target: T3, Human keratin 1 tail region K1-T1 (residue E490-R644) (human, UniProt P04264 490-644); assay: ELISA; pH 6.0
T3 chain: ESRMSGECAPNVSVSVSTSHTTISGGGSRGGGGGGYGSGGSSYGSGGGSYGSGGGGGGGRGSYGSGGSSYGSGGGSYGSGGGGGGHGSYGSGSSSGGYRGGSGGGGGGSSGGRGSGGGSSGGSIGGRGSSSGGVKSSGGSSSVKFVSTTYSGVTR

[6] = molecular target: T4, Human keratin 10 C-terminal tail fragment K10-T1 (residue G461-Y584) (human, UniProt P13645 461-584); assay: ELISA; pH 6.0
T4 chain: B7 chain

[7] = molecular target: the molecule itself; assay: crystal structure; CysR∼CTLD3-His crystallised in 0.2 M sodium citrate, 20% PEG3350, pH 6.5-7.4, 18 °C; P1 crystal form with a homodimer in one asymmetric unit
CysR∼CTLD3-Fc of DEC205 [8] = molecular target: T1, CysR∼CTLD3-Fc of DEC205; assay: far-Western, overlay or dot blot; keratin fragments resolved by SDS-PAGE and transferred to PVDF; membrane incubated with CysR∼CTLD3-Fc (10 μg/ml) in PBS, 5% milk, 0.1% Tween 20, pH 6.0 or pH 7.4, 2 h, room temperature; detected with HRP anti-human IgG Fcγ antibody; conditions: both partners purified

Binder | binding result [3] | binding result (CysR∼CTLD3-Fc of DEC205 [8]) | other results
B1 | binds |  | Kd (CysR∼CTLD3-Fc of DEC205 [1]): 29.1 nM; binding result (CysR∼CTLD3-Fc of DEC205 [2]): binds
B2 |  |  | binding result (CysR∼CTLD3-Fc of DEC205 [2]): binds; Kd (CysR∼CTLD3-Fc of DEC205 [4]): 10.9 nM
B3 |  |  | Kd [5]: 31.2 nM; Kd [6]: 11.5 nM
B4 | binds |  | Kd (CysR∼CTLD3-Fc of DEC205 [1]): 28.7 nM; binding result (CysR∼CTLD3-Fc of DEC205 [2]): binds
B5 |  |  | binding result [7]: binds
B6 |  | binds | 
B7 | binds |  | binding result (CysR∼CTLD3-Fc of DEC205 [2]): binds
B8 | binds |  | 
B9 | binds |  | 
B10 |  | binds | 
B11 |  | binds | 
B12 |  | binds | 
B13 |  | binds | 
B14 |  | binds | 
B15 |  | binds | 
B16 |  | binds | 
